Data: patent US20240410900A1 (Hoffmann-La Roche, published 2024)
Changes are numbered by the printed parent chain.

Columns and labels:
[1] = molecular target: T1, anti-IGF-1R antibody (IgG1 subclass with mutations I253A/H310A/H435A); experiment: ELISA assay C, tracer FcγRI-Dig, target 50 ng/mL
T1 construct: Positions are EU numbers; also called sample 3; antibody 3

[2] = molecular target: T2, anti-P-Selectin antibody (IgG4 subclass with mutations S228P/L235E); experiment: ELISA assay C, tracer FcγRI-Dig, target 50 ng/mL
T2 construct: Positions are EU numbers; also called sample 4; antibody 4

[3] = molecular target: T3, anti-VEGF/ANG2 antibody (IgG1 subclass with mutations P329G/L234A/L235A/I253A/H310A/H435A); experiment: ELISA assay C, tracer FcγRI-Dig, target 50 ng/mL
T3 construct: Format of the bispecific antibody not described; Positions are EU numbers, not positions on the UniProt entry; also called sample 1; antibody 1

[4] = molecular target: T4, anti-VEGF/ANG2 antibody (IgG1 subclass with mutations P329G/L234A/L235A); experiment: ELISA assay C, tracer FcγRI-Dig, target 50 ng/mL
T4 construct: Positions are EU numbers; also called sample 2; antibody 2

[5] = molecular target: T5, anti-VEGF/ANG2 antibody (wild-type IgG1 subclass) (UniProt P01857-1 1-330 = IgG part); experiment: ELISA assay C, tracer FcγRI-Dig, target 50 ng/mL
T5 construct: also called sample 5; antibody 5

[6] = molecular target: T1, anti-IGF-1R antibody (IgG1 subclass …); experiment: ELISA assay B, tracer M1.7.10-Dig, target 2 ng/mL
Procedure: (§1) Biotinylated anti-PG Fc-region antibody or biotinylated anti-AAA Fc-region antibody, respectively, was bound to the wells of a streptavidin-coated multi-well plate (SA-MTP) to produce a capture plate. Excess of unbound antibody was removed by washing. Sample/standard antibodies spiked in human and cynomolgus monkey serum (10% final concentration) was added to wells of the SA-MTP multi-well plate coated with the capture plate and incubated for 1 hour at room temperature. After washing, the wells were incubated with digoxygenylated anti-human kappa antibody M1.7.10 (see e.g. WO 2011/048043, incorporated herein by reference). After washing the bound digoxygenylated anti-human kappa antibody complex was incubated with a horseradish peroxidase (HRP) labelled anti-digoxygenin antibody. After another washing step, an ABTS solution was added to the wells and incubated. The product of the color reaction was measured by Elisa reader at 405 nm wavelength (reference wavelength: 490 nm). Absorbance values of each sample or standard were determined in triplicates.

[7] = molecular target: T2, anti-P-Selectin antibody (IgG4 subclass …); experiment: ELISA assay B, tracer M1.7.10-Dig, target 2 ng/mL
Procedure: as §1

[8] = molecular target: T3, anti-VEGF/ANG2 antibody (IgG1 subclass …); experiment: ELISA assay B, tracer M1.7.10-Dig, target 2 ng/mL
Procedure: as §1

[9] = molecular target: T4, anti-VEGF/ANG2 antibody (IgG1 subclass …); experiment: ELISA assay B, tracer M1.7.10-Dig, target 2 ng/mL
Procedure: as §1

[10] = molecular target: T5, anti-VEGF/ANG2 antibody (wild-type IgG1 …); experiment: ELISA assay B, tracer M1.7.10-Dig, target 2 ng/mL
Procedure: as §1

[11] = molecular target: T1, anti-IGF-1R antibody (IgG1 subclass …); experiment: ELISA assay C, tracer FcγRI-Dig, target 13 ng/mL
[12] = molecular target: T2, anti-P-Selectin antibody (IgG4 subclass …); experiment: ELISA assay C, tracer FcγRI-Dig, target 13 ng/mL
[13] = molecular target: T4, anti-VEGF/ANG2 antibody (IgG1 subclass …); experiment: ELISA assay C, tracer FcγRI-Dig, target 13 ng/mL
[14] = molecular target: T5, anti-VEGF/ANG2 antibody (wild-type IgG1 …); experiment: ELISA assay C, tracer FcγRI-Dig, target 13 ng/mL
[15] = molecular target: T1, anti-IGF-1R antibody (IgG1 subclass …); experiment: ELISA assay B, tracer M1.7.10-Dig, target 3 ng/mL
Procedure: as §1

[16] = molecular target: T2, anti-P-Selectin antibody (IgG4 subclass …); experiment: ELISA assay B, tracer M1.7.10-Dig, target 3 ng/mL
Procedure: as §1

[17] = molecular target: T3, anti-VEGF/ANG2 antibody (IgG1 subclass …); experiment: ELISA assay B, tracer M1.7.10-Dig, target 3 ng/mL
Procedure: as §1

[18] = molecular target: T4, anti-VEGF/ANG2 antibody (IgG1 subclass …); experiment: ELISA assay B, tracer M1.7.10-Dig, target 3 ng/mL
Procedure: as §1

[19] = molecular target: T5, anti-VEGF/ANG2 antibody (wild-type IgG1 …); experiment: ELISA assay B, tracer M1.7.10-Dig, target 3 ng/mL
Procedure: as §1

[20] = molecular target: T1, anti-IGF-1R antibody (IgG1 subclass …); experiment: ELISA assay C, tracer FcγRI-Dig, target 100 ng/mL
[21] = molecular target: T2, anti-P-Selectin antibody (IgG4 subclass …); experiment: ELISA assay C, tracer FcγRI-Dig, target 100 ng/mL
[22] = molecular target: T3, anti-VEGF/ANG2 antibody (IgG1 subclass …); experiment: ELISA assay C, tracer FcγRI-Dig, target 100 ng/mL
[23] = molecular target: T4, anti-VEGF/ANG2 antibody (IgG1 subclass …); experiment: ELISA assay C, tracer FcγRI-Dig, target 100 ng/mL
[24] = molecular target: T5, anti-VEGF/ANG2 antibody (wild-type IgG1 …); experiment: ELISA assay C, tracer FcγRI-Dig, target 100 ng/mL

B1: anti-AAA variant Fc-region antibody M1.6.22 (antibody, V domains shown)
VH: EVQLVESGGDLVKPGGSLKLSCAASGFTFSSYGMSWVRQTPDKRLEWVATISSGGSYIYYPDSVKGRFTISRDNAKNTLYLQMSSLKSEDTAMYYCARLGMITTGYAMDYWGQGTSVTVSS
VL: DVLMTQTPLSLPVSLGDQASISCRSSQTIVHSTGHTYLEWFLQKPGQSPKLLIYKVSNRFSGVPDRFSGSGSGTDFTLKISRVEAEDLGVYYCFQGSHVPYTFGGGTKLEIK
notes: Murine variable domains; also called M1.6.22-Bi
signal [OD405 nm] [1]: 1.06 OD405 nm
signal [OD405 nm] [2]: 0.054 OD405 nm
signal [OD405 nm] [3]: 0.077 OD405 nm
signal [OD405 nm] [4]: 0.057 OD405 nm
signal [OD405 nm] [5]: 0.067 OD405 nm
signal [OD405 nm] [6]: 1.48 OD405 nm
signal [OD405 nm] [7]: 0.032 OD405 nm
signal [OD405 nm] [8]: 0.041 OD405 nm
signal [OD405 nm] [9]: 0.041 OD405 nm
signal [OD405 nm] [10]: 0.036 OD405 nm
signal [OD405 nm] [11]: 0.175 OD405 nm
signal [OD405 nm] [12]: 0.052 OD405 nm
signal [OD405 nm] [13]: 0.061 OD405 nm
signal [OD405 nm] [14]: 0.07 OD405 nm
signal [OD405 nm] [15]: 2.26 OD405 nm
signal [OD405 nm] [16]: 0.039 OD405 nm
signal [OD405 nm] [17]: 0.039 OD405 nm
signal [OD405 nm] [18]: 0.044 OD405 nm
signal [OD405 nm] [19]: 0.037 OD405 nm
signal [OD405 nm] [20]: 2.1 OD405 nm
signal [OD405 nm] [21]: 0.069 OD405 nm
signal [OD405 nm] [22]: 0.079 OD405 nm
signal [OD405 nm] [23]: 0.076 OD405 nm
signal [OD405 nm] [24]: 0.076 OD405 nm

B2: anti-PG variant Fc-region antibody M1.3.17 (antibody, V domains shown)
VH: EVKLLESGGGLVQPGGSLKLSCAASGIDFRRYWMNWVRQAPGKGLEWIGEIDPDSSTINYTPSLKDKFIISRDNAKNTMYLQMRKVRSEDTALYYCARPYDYGAWFAYWGQGTLVTVSA
VL: QAVVTQESALTTSPGETVTLTCRSTTGAVTTSNYANWVQEKPDHLFTGLIGGTNKRAPGVPARFSGSLIGDKAALTITGAQTEDEAIYFCALWYSDHWVFGGGTKLTVL
notes: Monomeric, bivalent full-length antibody with murine variable domains; Biotinylated when used as capture antibody; also called anti-PG antibody clone 1.3.17; M1.3.17-Bi
signal [OD405 nm] [1]: 1.21 OD405 nm
signal [OD405 nm] [2]: 1.15 OD405 nm
signal [OD405 nm] [3]: 1.17 OD405 nm
signal [OD405 nm] [4]: 1.21 OD405 nm
signal [OD405 nm] [5]: 1.16 OD405 nm
signal [OD405 nm] [6]: 0.047 OD405 nm
signal [OD405 nm] [7]: 0.049 OD405 nm
signal [OD405 nm] [8]: 0.036 OD405 nm
signal [OD405 nm] [9]: 0.125 OD405 nm
signal [OD405 nm] [10]: 0.043 OD405 nm
signal [OD405 nm] [11]: 1.21 OD405 nm
signal [OD405 nm] [12]: 1.16 OD405 nm
signal [OD405 nm] [13]: 1.23 OD405 nm
signal [OD405 nm] [14]: 1.17 OD405 nm
signal [OD405 nm] [15]: 0.047 OD405 nm
signal [OD405 nm] [16]: 0.05 OD405 nm
signal [OD405 nm] [17]: 0.036 OD405 nm
signal [OD405 nm] [18]: 0.165 OD405 nm
signal [OD405 nm] [19]: 0.044 OD405 nm
signal [OD405 nm] [20]: 1.2 OD405 nm
signal [OD405 nm] [21]: 1.17 OD405 nm
signal [OD405 nm] [22]: 1.19 OD405 nm
signal [OD405 nm] [23]: 1.22 OD405 nm
signal [OD405 nm] [24]: 1.18 OD405 nm

B3: anti-PG variant Fc-region antibody M1.7.24 (monomeric, bivalent) (antibody, V domains shown)
VH: B2 VH with I27F, R30S, D52T, M79L, R84I, A97V, Y108S
VL: B2 VL with T25S, D96N
notes: Full-length Y-shaped antibody with murine variable domains; Biotinylated when used as capture antibody; also called anti-PG antibody clone 1.7.24; M1.7.24-Bi
signal [OD405 nm] [1]: 0.095 OD405 nm
signal [OD405 nm] [2]: 0.066 OD405 nm
signal [OD405 nm] [3]: 0.084 OD405 nm
signal [OD405 nm] [4]: 0.094 OD405 nm
signal [OD405 nm] [5]: 0.066 OD405 nm
signal [OD405 nm] [6]: 0.047 OD405 nm
signal [OD405 nm] [7]: 0.033 OD405 nm
signal [OD405 nm] [8]: 0.049 OD405 nm
signal [OD405 nm] [9]: 1.73 OD405 nm
signal [OD405 nm] [10]: 0.034 OD405 nm
signal [OD405 nm] [11]: 0.058 OD405 nm
signal [OD405 nm] [12]: 0.066 OD405 nm
signal [OD405 nm] [13]: 0.06 OD405 nm
signal [OD405 nm] [14]: 0.057 OD405 nm
signal [OD405 nm] [15]: 0.046 OD405 nm
signal [OD405 nm] [16]: 0.031 OD405 nm
signal [OD405 nm] [17]: 0.04 OD405 nm
signal [OD405 nm] [18]: 2.51 OD405 nm
signal [OD405 nm] [19]: 0.033 OD405 nm
signal [OD405 nm] [20]: 0.11 OD405 nm
signal [OD405 nm] [21]: 0.08 OD405 nm
signal [OD405 nm] [22]: 0.05 OD405 nm
signal [OD405 nm] [23]: 0.082 OD405 nm
signal [OD405 nm] [24]: 0.073 OD405 nm
